# Measured values published in publication PMC7725843, “Structural and biochemical analyses of an aminoglycoside 2′-N-acetyltransferase from Mycolicibacterium smegmatis” (Scientific Reports, 2020).
# Legend:
# Test in all cases: purified protein
# Type in all cases: biochemical, Mycolicibacterium smegmatis
# [1] = test system: NC[C@H]1O[C@H](O[C@H]2[C@H](O)[C@@H](O[C@H]3O[C@H](CO)[C@@H](O)[C@H](N)[C@H]3O)[C@H](N)C[C@@H]2N)[C@H](O)[C@@H](O)[C@@H]1O; conditions: 300 μM acetyl-CoA, 50 mM MES pH 6.5, 200 μM DTNB, 25 °C
# [2] = test system: NC[C@@H]1O[C@H](O[C@H]2[C@@H](O)[C@H](O[C@@H]3[C@@H](O)[C@H](N)C[C@H](N)[C@H]3O[C@H]3O[C@H](CO)[C@@H](O)[C@H](O)[C@H]3N)O[C@@H]2CO)[C@H](N)[C@@H](O)[C@@H]1O; conditions: 300 μM acetyl-CoA, 50 mM MES pH 6.5, 200 μM DTNB, 25 °C
# [3] = test system: NC[C@H]1O[C@H](O[C@H]2[C@H](O)[C@@H](O[C@H]3O[C@H](CO)[C@@H](O)[C@H](N)[C@H]3O)[C@H](N)C[C@@H]2N)[C@H](N)C[C@@H]1O; conditions: 300 μM acetyl-CoA, 50 mM MES pH 6.5, 200 μM DTNB, 25 °C
# [4] = test system: CC(=O)SCCNC(=O)CCNC(=O)[C@H](O)C(C)(C)COP(=O)(O)OP(=O)(O)OC[C@H]1O[C@@H](n2cnc3c(N)ncnc32)[C@H](O)[C@@H]1OP(=O)(O)O; conditions: aminoglycoside co-substrate not told, 50 mM MES pH 6.5, 200 μM DTNB, 25 °C
substance,measurement,setting,value
AAC(2′)-Id (Mycolicibacterium smegmatis MC2 155),Km,[1],(1.67 ± 0.84) × 10^2 μM
same,kcat,[1],0.13 ± 0.03 s⁻¹
same,kcat/Km,[1],817 ± 620 M⁻¹ s⁻¹
same,Km,[2],(1.04 ± 0.14) × 10^2 μM
same,kcat,[2],1.08 ± 0.06 s⁻¹
same,kcat/Km,[2],10400 ± 2100 M⁻¹ s⁻¹
same,Km,[3],(1.86 ± 0.10) × 10^2 μM
same,kcat,[3],3.34 ± 0.1 s⁻¹
same,kcat/Km,[3],18000 ± 1600 M⁻¹ s⁻¹
same,kcat,[4],0.34 ± 0.03 s⁻¹
same,kcat/Km,[4],5670 ± 1620 M⁻¹ s⁻¹
